In patent US20180028693A1:

Biological target: GvpA of Anabaena flos-aquae gas vesicles (GvpA-based shell of urea-stripped Ana GVs) (Anabaena flos-aquae) (UniProt P10397)
Experiment: SDS-PAGE of ST-Ana GVs against a standard curve of GvpC-ST

UniProt P10397, sequence (P10397 2-71): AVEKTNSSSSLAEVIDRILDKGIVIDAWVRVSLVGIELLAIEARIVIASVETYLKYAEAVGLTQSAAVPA

- SpyTag functionalities per GV: 1000 per GV
B1: GvpC-SpyTag (GvpC comprising a SpyTag fused to the C-terminus, and a His-tag fused to the C-terminus of the SpyTag) (protein)
chain: MGISLMAKIRQEHQSIAEKVAELSLETREFLSVTTAKRQEQAEKQAQELQAFYKDLQETSQQFLSETAQARIAQAEKQAQELLAFHKELQETSQQFLSATAQARIAQAEKQAQELLAFYQEVRETSQQFLSATAQARIAQAEKQAQELLAFHKELQETSQQFLSATADARTAQAKEQKESLLKFRQDLFVSIFGSGAHIVMVDAYKPTKGSGLEHHHHHH
